Article PMC10281804, “The structural basis of the talin–KANK1 interaction that coordinates the actin and microtubule cytoskeletons at focal adhesions” (Open Biology, 2023)

Experiments:
GFP–talin1–cBAK = test: Mitochondrial targeting system (MTS): recruitment of mCherry–KANK1 by GFP–talin1–cBAK; assay type: cell-based; details: NIH3T3 fibroblasts and HEK293T cells; fluorescence microscopy colocalization
From the text: To examine the effect of these KANK1 mutations on talin interactions in cells, we next used a mitochondrial targeting system (MTS) which we previously used to screen for defined protein–protein interactions. In this assay, one protein is fused to a small peptide sequence from the pro-apoptotic protein BAK (cBAK) which leads to its insertion into the outer membrane of mitochondria. Proteins that interact with the cBAK-tagged protein will get recruited to mitochondria, and this recruitment can be verified either by visualizing colocalization using fluorescence microscopy (figure 4a) or by purification of mitochondria followed by detection of co-precipitates using biochemistry (figure 4b,c). […] To confirm that the interaction was meditated by the R7 domain, we performed the colocalization assays with truncated talin constructs.
(§1) NIH3T3 mouse fibroblasts and HEK293T human epithelial cells were obtained from the American Type Culture Collection (ATCC). The vinculin null and WT mouse embryonic fibroblasts (MEFs) originate from the Eileen Adamson laboratory. All cells were maintained in Dulbecco's Modified Eagle Medium (DMEM; Sigma) supplemented with 10% fetal bovine serum (FBS, Gibco), 1% L-glutamine (Sigma) and 1% non-essential amino acids (Sigma). Talin1&2 null cells were cultured in DMEM F-12 (Gibco) supplemented with 10% FBS, 1% L-glutamine, 1% non-essential amino acids and […] HEPES (Sigma). All cells were cultured at 37̊C supplied with 5% CO2 and 95% humidity. Transient transfections were performed using Lipofectamine LTX with Plus Reagent (Invitrogen) to NIH3T3 cells, Lipofectamine 2000 (Invitrogen) to talin null cells, and jetPRIME reagent (Polyplus) to MEFs and HEK293T cells, as per the manufacturer's instructions.
(§2) For the construction of mCherry-KANK1, human FL-KANK1 (generous donation from the Bershadsky laboratory) cDNA was tagged in the C-terminal site with pmCherry (Clontech) by restriction digestion. Point mutations (L41E, L43E, F45E and V49E) were introduced in mCherry-KANK1 by site-directed mutagenesis (NEB) using the following oligonucleotides: […]ga[…] and […] for L41E; […]ga[…] and […] for L43E; […]gaa[…] and […] for F45E; […]a[…] and […] for V49E. Generation of GFP–talin1–cBAK and GFP–cBAK was as previously described. G1404L was introduced on GFP–talin1–cBAK by the method above using […]ctt[…] and […]. To generate GFP–talin1 R7DD–cBAK and GFP–talin1 R9DD-cBAK constructs, R7-DD (3555 bp) and R9-DD (2661 bp) were amplified from talin-1 (Mus musculus). Restriction digestion with XhoI and HindIII FastDigest enzymes (Thermo Scientific) was used to linearize GFP–cBAK. DNA assembly was performed to join R7-DD and R9-DD to linearized the GFP–cBAK vector using the NEBuilder HiFi DNA assembly kit (NEB).
(§3) Images of fixed samples in PBS were acquired at room temperature using an Olympus IX83 inverted microscope equipped with a 60×/1.42 PlanApo N oil objective and a QImaging Retiga R6 CCD camera, controlled by Metamorph software. Samples were illuminated using LEDs (UV/Cyan/Green-Yellow/Red, Lumencor) for fluorescence excitation; a Sedat filter set (DAPI/FITC/TRITC/Cy5, Chroma, 89000) was used.

talin1-cBAK = test: Mitochondria pulldown of KANK1 WT or point mutations, Western blot; assay type: cell-based; details: HEK293T cells; mitochondrial pulldown, triplicate experiments, normalized to WT; *** p < 0.001 (one-way ANOVA, Dunnett's)
From the text: as §2
For fixed cell imaging, cells were cultured in glass-bottom dishes (IBL) coated with bovine fibronectin (Sigma) at a final concentration of 10 µg ml^−1. Samples were fixed in 4% paraformaldehyde (PFA, Sigma), and warmed to 37̊C, for 15 min before being washed three times with PBS. For immunofluorescence staining, samples were permeabilized at room temperature with 0.5% Triton X-100 (Sigma) for 5 min before being washed three times. […]
Protein samples were extracted from cells and mitochondria, respectively, using RIPA lysis buffer (Chromotek) supplemented with protease inhibitors. […] Primary antibody signal was detected using goat anti-mouse IgG conjugated to IRDye 680RD (ab216776, abcam) and goat anti-rabbit IgG conjugated to IRDye 800CW (ab216773, abcam) secondary antibodies, diluted 1 : 15 000, imaged with an Odyssey CLx imaging system (LI-CO Biosciences). […]

[1] = test system: focal adhesions of NIH3T3 fibroblasts; test: KANK1 localization to focal adhesions (co-expression with GFP–paxillin); assay type: cell-based, mouse; details: NIH3T3 fibroblasts co-expressing GFP–paxillin
Description: as §1, §2, §3

[2] = test system: α/β liprin in NIH3T3 fibroblasts; test: α/β liprin localization (CMSC assembly); assay type: cell-based, mouse; details: NIH3T3 fibroblasts co-transfected with GFP–paxillin and mCherry–KANK1 F45E; immunostaining
Description: as §1, with “instructions. […]” for “instructions.”
as §3

B1: KANK1 F45E: mCherry-KANK1 with point mutation F45E (protein)
chain: MAHTTKVNGSASGKAGDILSGDQDKEQKDPYFVETPYGYQLDLDELKYVDDIQKGNTIKRLNIQKRRKPSVPCPEPRTTSGQQGIWTSTESLSSSNSDDNKQCPNFLIARSQVTSTPISKPPPPLETSLPFLTIPENRQLPPPSPQLPKHNLHVTKTLMETRRRLEQERATMQMTPGEFRRPRLASFGGMGTTSSLPSFVGSGNHNPAKHQLQNGYQGNGDYGSYAPAAPTTSSMGSSIRHSPLSSGISTPVTNVSPMHLQHIREQMAIALKRLKELEEQVRTIPVLQVKISVLQEEKRQLVSQLKNQRAASQINVCGVRKRSYSAGNASQLEQLSRARRSGGELYIDYEEEEMETVEQSTQRIKEFRQLTADMQALEQKIQDSSCEASSELRENGECRSVAVGAEENMNDIVVYHRGSRSCKDAAVGTLVEMRNCGVSVTEAMLGVMTEADKEIELQQQTIESLKEKIYRLEVQLRETTHDREMTKLKQELQAAGSRKKVDKATMAQPLVFSKVVEAVVQTRDQMVGSHMDLVDTCVGTSVETNSVGISCQPECKNKVVGPELPMNWWIVKERVEMHDRCAGRSVEMCDKSVSVEVSVCETGSNTEESVNDLTLLKTNLNLKEVRSIGCGDCSVDVTVCSPKECASRGVNTEAVSQVEAAVMAVPRTADQDTSTDLEQVHQFTNTETATLIESCTNTCLSTLDKQTSTQTVETRTVAVGEGRVKDINSSTKTRSIGVGTLLSGHSGFDRPSAVKTKESGVGQININDNYLVGLKMRTIACGPPQLTVGLTASRRSVGVGDDPVGESLENPQPQAPLGMMTGLDHYIERIQKLLAEQQTLLAENYSELAEAFGEPHSQMGSLNSQLISTLSSINSVMKSASTEELRNPDFQKTSLGKITGNYLGYTCKCGGLQSGSPLSSQTSQPEQEVGTSEGKPISSLDAFPTQEGTLSPVNLTDDQIAAGLYACTNNESTLKSIMKKKDGNKDSNGAKKNLQFVGINGGYETTSSDDSSSDESSSSESDDECDVIEYPLEEEEEEEDEDTRGMAEGHHAVNIEGLKSARVEDEMQVQECEPEKVEIRERYELSEKMLSACNLLKNTINDPKALTSKDMRFCLNTLQHEWFRVSSQKSAIPAMVGDYIAAFEAISPDVLRYVINLADGNGNTALHYSVSHSNFEIVKLLLDADVCNVDHQNKAGYTPIMLAALAAVEAEKDMRIVEELFGCGDVNAKASQAGQTALMLAVSHGRIDMVKGLLACGADVNIQDDEGSTALMCASEHGHVEIVKLLLAQPGCNGHLEDNDGSTALSIALEAGHKDIAVLLYAHVNFAKAQSPGTPRLGRKTSPGPTHRGSFD
modifications: left off: mCherry, C-terminal, kept
- recruitment of mCherry–KANK1 to mitochondria by GFP–talin1–cBAK (GFP–talin1–cBAK): abolishes GFP–talin–cBAK mediated recruitment
- relative KANK1 binding to talin1-cBAK (%) (talin1-cBAK): not detected
- localization of mCherry–KANK1 to FAs / FA belt [1]: abolished localization to FAs and the FA belt
- α/β liprin localization [2]: loss of α/β liprin from both the adhesion belt and the cellular cortex
